Reference: patent publication US20050222039A1, “Animal treatment” (priority 2001, published 2005)

Experiments:
Romney ewes [1] = test: Trial 2: bromocriptine treatment of winter-lambing Romney ewes (plasma prolactin, wool growth, lambs); type: in vivo, sheep; details: bromocriptine given to pregnant ewes before or after parturition
Experimental: Natural and experimental changes in plasma prolactin concentration and their effects on wool production in winter-lambing Romney ewes were measured.
Fourteen non-pregnant and 29 pregnant ewes were maintained indoors from early April 1995 for 12 months under controlled photoperiod and controlled dietary intake. Two groups (n=8) were held under long day photoperiod (16L:8D; LD non-pregnant and LD-lambed) while 2 others were exposed to natural photoperiod (ND non-pregnant, n=6 and ND-lambed, n=7). Two further groups (n=7) of pregnant ewes housed in natural days were treated with bromocriptine, either from 1 week before parturition (ND-BrB) or 1-3 days after parturition (ND-BrA), to suppress prolactin secretion.
Lambing occurred between 12 and 18 June. Plasma prolactin, mean fibre diameter and wool growth were measured at regular intervals and the results were plotted in FIG. 3.

[2] = Trial 5: plasma prolactin after two 9-day prolactin infusions in non-pregnant Romney ewes; type: in vivo, sheep; details: intravenous 1.0 mg/kg/day for 9 days
Experimental: (§1) Twenty-one, mixed age, non-pregnant Romney ewes were maintained indoors in individual pens from September 2001 until February 2002. The ewes were fed to maintain a constant live weight. They were divided into 3 groups: short day controls (n=7), short day prolactin infused (n=7) and normal day controls (n=7). An ovine prolactin pituitary extract (1.0 mg/kg/day) was administered to each ewe in the short day infused group by intravenous infusion via a jugular cannula commencing on 9 October for 9 days. A second 9-day prolactin infusion was administered to the same ewes commencing on 20 November, 33 days after the end of the first infusion.
Plasma prolactin concentrations were measured at regular intervals and ten midside skin biopsies were collected at intervals between October and December 2001 for measurement of prolactin receptor long form gene expression by real-time PCR. The results are plotted in FIG. 10.

[3] = test system: prolactin receptor gene expression; test: Trial 8: prolactin receptor gene expression in mice mammary gland; type: in vivo; details: 3-day infused group, days 7 and 14, P<0.05
Experimental: Swiss female mice were maintained in cages at a constant temperature of 22 C., under a photoperiod regime of 14 hours light: 10 hours dark, fed a diet of formulated mouse pellets ad libitum with access to fresh tap water. At 21 days of age, subcutaneous implants releasing 250 μg/day of bromocriptine over 60 days (Cat. Number SC-231; Innovative Research of America Inc.) were inserted under anaesthetic. At the same time, the mice received a slow release 100 μl osmotic pump (Alzet Model 1007D; Alza Corporation, Palo Alto, Calif.) delivering ovine prolactin (400 μg/day) for either 3 or 7 days. Mice were sacrificed in groups of 3 at intervals before, during and after prolactin administration. They were anaesthetised using CO2 and blood sampled by heart puncture, prior to euthanasia by cervical dislocation. The blood was centrifuged and the plasma stored at −20 C. by radioimmunoassay for ovine prolactin. The mammary glands were dissected from each mouse and snap frozen in liquid nitrogen prior to assay by real-time PCR for prolactin receptor gene expression. The results are plotted in FIG. 13.

Romney ewes [4] = test: Trial 4: 3-, 9- or 18-day prolactin infusion, wool growth in pregnant Romney ewes; type: in vivo, sheep; details: for mean total patch weight (clean wool): 12-month trial
Experimental: Trial 4 was conducted to compare different periods of exogenous prolactin administration on wool growth.
Eighteen 3 year old Romney ewes were maintained indoors in individual pens under natural photoperiod for 12 months from March 2000. […] The ewes were fed to maintain a constant maternal live weight (independent of conceptus and fleece weights). A control group (ND non-pregnant) was not mated (n=6). Twelve other ewes (comprising Groups 2-4) were mated on 23 April.
An ovine prolactin pituitary extract (1.0 mg/kg/day) was administered by intravenous infusion via a jugular cannula commencing 11 days after mating (4 May) for temporary periods of either 3 days (Group 2, n=6), 9 days (Group 3, n=3) or 18 days (Group 4, n=3).
(§2) The sheep were shorn on entry to the experiment and again at the conclusion of the experiment in March 2001 and a mid-side wool sample was measured for fibre diameter and yield. Wool samples were clipped from a standardised 100×100 mm mid-side patch on the right side of each ewe at monthly intervals to determine changes in seasonal clean wool production and mean fibre diameter. Wool growth and plasma prolactin concentration were measured at regular intervals and the results were plotted in FIGS. 7 and 8.

rabbits = details: bromocriptine-treated rabbits, single injection of 3 mg of prolactin; cited from earlier work
[5] = test system: prolactin receptor long form gene expression; test: Trial 3: skin prolactin receptor long form gene expression by real-time PCR; type: in vivo, sheep
Experimental: Six midside skin biopsies were collected at intervals between April and June for measurement of prolactin receptor long form gene expression by real-time PCR and the results are plotted in FIG. 6. An assay for the short form of the ovine prolactin receptor was also developed, but results are not presented since only very low levels of expression were detected.
(§3) The relative expression of prolactin receptor mRNA was measured using Taqman real-time PCR (Applied Biosystems). RNA was extracted from skin samples using TRIzol reagent according to manufactures protocol (Invitrogen). Total RNA was then quantified using RiboGreen reagent (Invitrogen) and all samples were standardized to a concentration of 0.5 μg/μl of total RNA. The reverse transcriptase reaction (Superscript II RT-PCR kit, Invitrogen) was used to generate single stranded cDNA from 0.5 μg of total RNA.
(§4) The primers and probes for the long form of the prolactin receptor were designed using the Primer Express program (Applied Biosystems).
(§5) The 18S ribosomal RNA pre-developed assay reagent (Applied Biosystems) was used as an internal control and the reactions were set up according to the manufacturers instructions. Data was analysed using the software provided by Applied Biosystems. Results on relative mRNA quantities were obtained by the standard curve method.

[6] = test system: prolactin receptor long form gene expression; test: Trial 4: skin prolactin receptor long form gene expression by real-time PCR; type: in vivo, sheep
Experimental: as §3, §4, §5
Six midside skin biopsies were collected at intervals between April and June for measurement of prolactin receptor long form gene expression by real-time PCR and the results are plotted in FIG. 9.

sheep = sheep held in darkness, infusion of prolactin; cited from earlier work
[7] = Trial 6: plasma prolactin after 9-day prolactin infusion in pregnant Romney or Wiltshire ewes; type: in vivo, sheep; details: infusion 40 mg/day for 9 days, pregnant ewes in short days
Experimental: (§6) Four groups, each comprised of seven 1-2 year old Romney or Wiltshire ewes were shorn and maintained indoors in individual pens from March until November 2002. The animals were fed to maintain a constant maternal live weight (independent of conceptus and fleece weights). The ewes were mated in March, and maintained in short days (8L:16D). Half of the ewes were cannulated and infusions of prolactin (40 mg/day) for 9 days commenced one week after mating. Blood samples and skin biopsies were collected from all ewes at intervals to monitor plasma prolactin and skin prolactin receptor gene expression respectively. The results are plotted in FIG. 11.

[8] = test system: prolactin receptor gene expression; test: Trial 6: skin prolactin receptor gene expression in Romney or Wiltshire ewes; type: in vivo, sheep; details: Wiltshire ewes treated in April, P<0.05
Experimental: as §6

prolactin receptor = details: cited from earlier work
Romney ewes [9] = type: in vivo, sheep
Text: The effects of two methods of administration of exogenous prolactin on wool growth were examined.
Forty-three mixed age Romney ewes were maintained indoors in individual pens from April until October, and fed to maintain a constant maternal live weight (independent of conceptus and fleece weights). A control group (ND non-pregnant) was not mated (n=8). Thirty-five other ewes (comprising Groups 2-5) were mated in April. Groups 1-4 were maintained in natural photoperiod while Group 5 (LD-lambed, n=10) was subjected to long days (16L:8D) from 1 week after mating for the duration of the trial (ie 18 days).
An ovine prolactin pituitary extract (0.80 mg/kg/day) was administered by either daily subcutaneous injection to sheep of Group 3 (PRL-INJ, n=10) or by intravenous infusion via a jugular cannula to sheep of Group 4 (PRL-INF, n=2) (from one week after mating for a temporary period of 18 days).
as §2, with “late September” for “March 2001”, “concentrations” for “concentration”, “4” for “7”, “5.” for “8.”

[10] = test system: prolactin receptor long form gene expression; test: Trial 5: skin prolactin receptor long form gene expression by real-time PCR; type: in vivo, sheep
Experimental: as §3, §1
Plasma prolactin concentrations were measured at regular intervals and ten midside skin biopsies were collected at intervals between October and December 2001 for measurement of prolactin receptor long form gene expression by real-time PCR. […]

cows = details: infusions of exogenous bovine prolactin; cited from earlier work
[11] = model parameter from literature

## CC(C)C[C@H]1C(=O)N2CCC[C@H]2[C@]2(O)O[C@](NC(=O)[C@@H]3C=C4c5cccc6[nH]c(Br)c(c56)C[C@H]4N(C)C3)(C(C)C)C(=O)N12 [bromocriptine]
Romney ewes [1]
  birth weight or live weight changes of lambs: did not affect

B1: prolactin: ovine prolactin pituitary extract; peptide hormone of approximately 200 amino acids, given by infusion, injection or osmotic pump (protein, UniProt P01240 31-229, looked up)
Prolactin: TPVCPNGPGNCQVSLRDLFDRAVMVSHYIHNLSSEMFNEFDKRYAQGKGFITMALNSCHTSSLPTPEDKEQAQQTHHEVLMSLILGLLRSWNDPLYHLVTEVRGMKGVPDAILSRAIEIEEENKRLLEGMEMIFGQVIPGAKETEPYPVWSGLPSLQTKDEDARHSAFYNLLHCLRRDSSKIDTYLKLLNCRIIYNNNC
modifications: pituitary extract
[2]
  plasma prolactin levels on termination of the infusions: fell rapidly to baselines levels
[2]; short day ewes
  plasma prolactin levels during infusion: approximately 500 ng/ml
[3]
  prolactin receptor gene expression vs control group and 7-day infused group: elevated
Romney ewes [4]; 3-day infusion
  mean total patch weight (clean wool): 0.74 g
Romney ewes [4]; 9-day infusion 1.0 mg/kg/day, during May
  clean patch wool growth vs 3-day and 18-day infused groups: higher wool growth
Romney ewes [4]; 9-day infusion
  mean total patch weight (clean wool): 0.91 g
Romney ewes [4]; 9-day infusion, July
  mean fibre diameter difference vs other infused groups: approximately 3 μm
Romney ewes [4]; 9-day infusion, July, P<0.01, persisted until November
  wool growth rate vs other infused groups: higher than either of the other infused groups
Romney ewes [4]; 9-day infusion, June, P<0.01
  mean fibre diameter vs 3-day infused group: significantly higher
Romney ewes [4]; 18-day infusion
  mean total patch weight (clean wool): 0.66 g
rabbits
  recovery in milk yield: accelerated
[5]; PRL-INJ (injected) among remaining groups, over the trial
  prolactin receptor gene expression, differences between remaining treatment groups: no significant differences
[5]; infused ewes, April to June, P<0.05
  duration of high level of receptor expression vs untreated ewes: sustained for two months
[5]; infused ewes, during and after the 18 day infusion, P<0.01
  prolactin receptor gene expression compared to other treatment groups: significantly elevated
[6]; 3-day infusion group
  prolactin receptor gene expression following commencement of infusions: all groups except the 3-day group
[6]; 9-day and 18-day infusion groups
  prolactin receptor gene expression following commencement of infusions: dropped significantly
[6]; all infused groups, not statistically significant
  prolactin receptor gene expression following termination of infusions: rose
sheep
  nitrogen retention: increases
[7]
  plasma prolactin levels during prolactin administration: approximately 500 ng/ml
[8]
  prolactin receptor gene expression in September vs non-treated Wiltshire ewes: increase
Prolactin receptor; model parameter from literature [Gertler et al., 1996]
  α, rate of formation of dimer complex: 48000 M⁻¹ s⁻¹
Prolactin receptor; [11]
  d12, dissociation rate of hormone-receptor complex: 4717.4 day⁻¹
  d, dissociation rate of hormone-receptor complex: 12.96 day⁻¹
  α1, rate of formation of trimer complex: 35000 M⁻¹ s⁻¹
  γ, clearance rate constant of plasma prolactin: 35.6 day⁻¹
Romney ewes [9]; PRL-INF, 6-month trial, ND-lambed controls 1.23 kg, SEM ±0.13 kg, P<0.01
  mean clean fleece weight: 1.63 kg
Romney ewes [9]; PRL-INF, by September, P=0.05
  increase in mean fibre diameter: 2 μm
Romney ewes [9]; PRL-INF, intravenous infusion 18 days, n=2, May and throughout pregnancy
  decline in clean wool growth rate: arrested in May and remained high
Romney ewes [9]; PRL-INF, intravenous infusion, P<0.001
  September clean wool growth rate relative to untreated ND-lambed ewes: approximately twice
Romney ewes [9]; PRL-INJ, P<0.10
  mean fibre diameter relative to ND-lambed controls: appeared to be lower
Romney ewes [9]; PRL-INJ, daily subcutaneous injection, P<0.05
  September clean wool growth vs untreated ND-lambed ewes: lower
Romney ewes [9]; daily subcutaneous injections 0.8 mg/kg/day (PRL-INJ)
  decline in clean wool growth rate compared to pregnant controls: no initial effect
[10]; first 9-day infusion, P<0.01
  prolactin receptor gene expression: elevated
[10]; second 9-day infusion, P<0.02
  prolactin receptor gene expression: elevated

B2: bovine prolactin: exogenous bovine prolactin infused in cows (literature) (protein, UniProt P01239 31-229, looked up)
Prolactin: TPVCPNGPGNCQVSLRDLFDRAVMVSHYIHDLSSEMFNEFDKRYAQGKGFITMALNSCHTSSLPTPEDKEQAQQTHHEVLMSLILGLLRSWNDPLYHLVTEVRGMKGAPDAILSRAIEIEEENKRLLEGMEMIFGQVIPGAKETEPYPVWSGLPSLQTKDEDARYSAFYNLLHCLRRDSSKIDTYLKLLNCRIIYNNNC
cows
  bromocriptine-induced reductions in milk yield: can prevent
